Reference: patent US20090035321A1, “Intercellular adhesion molecules and their binding ligands” (Boehringer Ingelheim Pharmaceuticals, Inc., published 2009)

Tests used:
[1] = target: ICAM-1 A115N/SV (printed A155N/SV at paragraph 410) (human) (UniProt P05362); test: COS cells on LFA-1 coated plastic
ICAM-1 Q1T/KA [2] = target: T1, ICAM-1 Q1T/KA (human, UniProt P05362); test: COS cells on LFA-1 coated plastic
ICAM-1 K8/E = ICAM-1 K8/E (human, UniProt P05362); test: COS cells on LFA-1 coated plastic
ICAM-1 G15/SA = ICAM-1 G15/SA (human, UniProt P05362); test: COS cells on LFA-1 coated plastic
ICAM-1 D26QPK/ALPE = ICAM-1 D26QPK/ALPE (human, UniProt P05362); test: COS cells on LFA-1 coated plastic
ICAM-1 E34/A = ICAM-1 E34/A (human, UniProt P05362); test: COS cells on LFA-1 coated plastic
ICAM-1 N48/H [3] = target: T2, ICAM-1 N48/H (human, UniProt P05362); test: COS cells on LFA-1 coated plastic
ICAM-1 S61/I = ICAM-1 S61/I (human, UniProt P05362); test: COS cells on LFA-1 coated plastic
ICAM-1 M64/I = ICAM-1 M64/I (human, UniProt P05362); test: COS cells on LFA-1 coated plastic
ICAM-1 Y66/T = ICAM-1 Y66/T (human, UniProt P05362); test: COS cells on LFA-1 coated plastic
ICAM-1 S74/A = ICAM-1 S74/A (human, UniProt P05362); test: COS cells on LFA-1 coated plastic
ICAM-1 E90/Q = ICAM-1 E90/Q (human, UniProt P05362); test: COS cells on LFA-1 coated plastic
ICAM-1 E127/R = ICAM-1 E127/R (human, UniProt P05362); test: COS cells on LFA-1 coated plastic
ICAM-1 K128/R = ICAM-1 K128/R (human, UniProt P05362); test: COS cells on LFA-1 coated plastic
ICAM-1 A189T/SI = ICAM-1 A189T/SI (human, UniProt P05362); test: COS cells on LFA-1 coated plastic
ICAM-1 Q1T/KA [4] = target: T1, ICAM-1 Q1T/KA; test: 35S-HRV14 on COS cells
Description: (§1) COS cells were seeded into 10 cm tissue culture plates such that they would be 50% confluent by 16-24 hrs. COS cells were then washed once with TBS and incubated for 4 hrs with 4 ml RPMI containing 10% Nu sera (Collaborative) 5 pg/ml chloroquine, 3 μg of mutant plasmid and 200 μg/ml DEAE-dextran sulfate. Cells were then washed with 10% DMSO/PBS followed by PBS and cultured 16 hrs in culture media. Culture media was replaced with fresh media and at 48 hrs post transfection (OS cells were suspended by trypsin/EDTA (Gibco) treatment and divided into 2, 10 cm plates as well as 24 well tissue culture plates for HRV binding. At 72 hrs cells were harvested from 10 cm plates with 5 mM EDTA/HBSS and processed for adhesion to LFA-1 coated plastic and immunofluorescence.
(§2) Binding occurred in 1 hr at 35° C. in a 5% CO₂ atmosphere with horizontal rotation (100 rpm). Unbound [³⁵S] HRV14 was aspirated, COS cells were gently washed with 150 ml of HRV buffer and then solubilized with 1% SDS in PBS for scintillation counting.
(§3) In Table 25, the notation for the mutations uses the one-letter code for the wild-type sequence followed by a slash and the one-letter code for the corresponding mutant sequence. The position of the first amino acid within the sequence is indicated. Wild type residues precede the slash followed by the residues they were substituted for in the mutant. COS cells expressing ICAM-1 mutants were tested for adherence to LFA-1 coated plastic and for binding 35S met-labeled HRV14. […] Binding is presented as mean and standard error (SE) for multiple experiments (n). […] The specific linear fluorescence intensity (SLFI) of CL203 for each mutant is normalized to that of wild type CL203 SLFI (% WT) as discussed above. The SLFI of RR1/1, R6.5 and LB-2 SLFI is normalized to the CL203 SLFI of the mutant (% CL203) as described above.

ICAM-1 V4/G = ICAM-1 V4/G (human, UniProt P05362); test: 35S-HRV14 on COS cells
Description: as §1, §2, §3

ICAM-1 N48/H [5] = target: T2, ICAM-1 N48/H; test: 35S-HRV14 on COS cells
Description: as §1, §2, §3

ICAM-1 R49KV/EKL = ICAM-1 R49KV/EKL (human, UniProt P05362); test: 35S-HRV14 on COS cells
Description: as §1, §2, §3

ICAM-1 E59/Q = ICAM-1 E59/Q (human, UniProt P05362); test: 35S-HRV14 on COS cells
Description: as §1, §2, §3

ICAM-1 D60S/KL = ICAM-1 D60S/KL (human, UniProt P05362); test: 35S-HRV14 on COS cells
Description: as §1, §2, §3

ICAM-1 D60/K = ICAM-1 D60/K (human, UniProt P05362); test: 35S-HRV14 on COS cells
Description: as §1, §2, §3

ICAM-1 D71/N = ICAM-1 D71/N (human, UniProt P05362); test: 35S-HRV14 on COS cells
Description: as §1, §2, §3

ICAM-1 Q73/H = ICAM-1 Q73/H (human, UniProt P05362); test: 35S-HRV14 on COS cells
Description: as §1, §2, §3

ICAM-1 K77T/ES = ICAM-1 K77T/ES (human, UniProt P05362); test: 35S-HRV14 on COS cells
Description: as §1, §2, §3

ICAM-1 Y83/S = ICAM-1 Y83/S (human, UniProt P05362); test: 35S-HRV14 on COS cells
Description: as §1, §2, §3

ICAM-1 E87/K = ICAM-1 E87/K (human, UniProt P05362); test: 35S-HRV14 on COS cells
Description: as §1, §2, §3

ICAM-1 L91/A = ICAM-1 L91/A (human, UniProt P05362); test: 35S-HRV14 on COS cells
Description: as §1, §2, §3

ICAM-1 N175TSA/QTLG = ICAM-1 N175TSA/QTLG (human, UniProt P05362); test: 35S-HRV14 on COS cells
Description: as §1, §2, §3

ICAM-1 S177/G = ICAM-1 S177/G (human, UniProt P05362); test: 35S-HRV14 on COS cells
Description: as §1, §2, §3

ICAM-1 A178/G = ICAM-1 A178/G (human, UniProt P05362); test: 35S-HRV14 on COS cells
Description: as §1, §2, §3

Question: For “purified LFA-1, bound to plastic (from UniProt P20701) (receptor)”, which LFA-1 Binding % (% of wild type) [1] is on record?
Answer: 0

Question: And the LFA-1 Binding % (% of wild type) (ICAM-1 Q1T/KA [2])?
Answer: 119

Question: What about the LFA-1 Binding % (% of wild type) (ICAM-1 K8/E) of the same molecule?
Answer: 84

Question: And the LFA-1 Binding % (% of wild type) (ICAM-1 G15/SA)?
Answer: 120

Question: What about the LFA-1 Binding % (% of wild type) (ICAM-1 D26QPK/ALPE) of the same molecule?
Answer: 30

Question: And the LFA-1 Binding % (% of wild type) (ICAM-1 E34/A)?
Answer: 0

Question: What about the LFA-1 Binding % (% of wild type) (ICAM-1 N48/H [3]) of the same molecule?
Answer: 88

Question: What about the LFA-1 Binding % (% of wild type) (ICAM-1 S61/I) of the same molecule?
Answer: 59

Question: What about the LFA-1 Binding % (% of wild type) (ICAM-1 M64/I) of the same molecule?
Answer: 111

Question: What about the LFA-1 Binding % (% of wild type) (ICAM-1 Y66/T) of the same molecule?
Answer: 135

Question: What about the LFA-1 Binding % (% of wild type) (ICAM-1 S74/A) of the same molecule?
Answer: 70

Question: And the LFA-1 Binding % (% of wild type) (ICAM-1 E90/Q)?
Answer: 122

Question: What about the LFA-1 Binding % (% of wild type) (ICAM-1 E127/R) of the same molecule?
Answer: 82

Question: And the LFA-1 Binding % (% of wild type) (ICAM-1 K128/R)?
Answer: 109

Question: And the LFA-1 Binding % (% of wild type) (ICAM-1 A189T/SI)?
Answer: 91

B1: human rhinovirus 14 (HRV14) (other)
chain: GAQVSTQKSGSHENQNILTNGSNQTFTVINYYKDAASTSSAGQSLSMDPSKFTEPVKDLMLKGAPALNSPNVEACGYSDRVQQITLGNSTITTQEAANAVVCYAEWPEYLPDVDASDVNKTSKPDTSVCRFYTLDSKTWTTGSKGWCWKLPDALKDMGVFGQNMFFHSLGRSGYTVHVQCNATKFHSGCLLVVVIPEHQLASHEGGNVSVKYTFTHPGERGIDLSSANEVGGPVKDVIYNMNGTLLGNLLIFPHQFINLRTNNTATIVIPYINSVPIDSMTRHNNVSLMVIPIAPLTVPTGATPSLPITVTIAPMCTEFSGIRSKSIVPQGLPTTTLPGSGQFLTTDDRQSPSALPNYEPTPRIHIPGKVHNLLEIIQVDTLIPMNNTHTKDEVNSYLIPLNANRQNEQVFGTNLFIGDGVFKTTLLGEIVQYYTHWSGSLRFSLMYTGPALSSAKLILAYTPPGARGPQDRREAMLGTHVVWDIGLQSTIVMTIPWTSGVQFRYTDPDTYTSAGFLSCWYQTSLILPPETTGQVYLLSFISACPDFKLRLMKDTQTISQTVALTEGLGDELEEVIVEKTKQTVASISSGPKHTQKVPILTANETGATMPVLPSDSIETRTTYMHFNGSETDVECFLGRAACVHVTEIQNKDATGIDNHREAKLFNDWKINLSSLVQLRKKLELFTYVRFDSEYTILATASQPDSANYSSNLVVQAMYVPPGAPNPKEWDDYTWQSASNPSVFFKVGDTSRFSVPYVGLASAYNCFYDGYSHDDAETQYGITVLNHMGSMAFRIVNEHDEHKTLVKIRVYHRAKHVEAWIPRAPRALPYTSIGRTNYPKNTEPVIKKRKGDIKSY
modifications: [35S]-Met labeled
Question: Which “HRV Binding %” value (ICAM-1 Q1T/KA [4]) does the source give for B1 here?
Answer: 11 % of wild type

Question: And the “HRV Binding %” value (ICAM-1 V4/G)?
Answer: 30 % of wild type

Question: What about the “HRV Binding %” value (ICAM-1 N48/H [5]) of the same molecule?
Answer: 81 % of wild type

Question: And the “HRV Binding %” value (ICAM-1 R49KV/EKL)?
Answer: 49 % of wild type

Question: And the “HRV Binding %” value (ICAM-1 E59/Q)?
Answer: 92 % of wild type

Question: What about the “HRV Binding %” value (ICAM-1 D60S/KL) of the same molecule?
Answer: 1 % of wild type

Question: What about the “HRV Binding %” value (ICAM-1 D60/K) of the same molecule?
Answer: 4 % of wild type

Question: What about the “HRV Binding %” value (ICAM-1 D71/N) of the same molecule?
Answer: 62 % of wild type

Question: And the “HRV Binding %” value (ICAM-1 Q73/H)?
Answer: 117 % of wild type

Question: And the “HRV Binding %” value (ICAM-1 K77T/ES)?
Answer: 42 % of wild type

Question: And the “HRV Binding %” value (ICAM-1 Y83/S)?
Answer: 86 % of wild type

Question: And the “HRV Binding %” value (ICAM-1 E87/K)?
Answer: 27 % of wild type

Question: And the “HRV Binding %” value (ICAM-1 L91/A)?
Answer: 105 % of wild type

Question: And the “HRV Binding %” value (ICAM-1 N175TSA/QTLG)?
Answer: 40 % of wild type

Question: What about the “HRV Binding %” value (ICAM-1 S177/G) of the same molecule?
Answer: 66 % of wild type

Question: And the “HRV Binding %” value (ICAM-1 A178/G)?
Answer: 102 % of wild type
